Measured values published in patent US20170101480A1.

Target: ErbB3 (human) (UniProt P21860)
Experiment: cell-based or functional assay

B1: Seribantumab (antibody, INN chains, looked up, V domains shown)
VH: EVQLLESGGGLVQPGGSLRLSCAASGFTFSHYVMAWVRQAPGKGLEWVSSISSSGGWTLYADSVKGRFTISRDNSKNTLYLQMNSLRAEDTAVYYCTRGLKMATIFDYWGQGTLVTVSS
VL: QSALTQPASVSGSPGQSITISCTGTSSDVGSYNVVSWYQQHPGKAPKLIIYEVSQRPSGVSNRFSGSKSGNTASLTISGLQTEDEADYYCCSYAGSSIFVIFGGGTKVTVLG
**Q.** What does the source list for B1?
**A.** inhibition of HRG-induced cell growth (CTG assay), OVCAR8-GFP cells: 49%; inhibition of HRG-induced cell growth (CTG assay), OVCAR-8-JMaCYT1 cells (ErbB4 overexpressing): < 20%; inhibition of HRG-induced cell growth (CTG assay), OVCAR-8-JMaCYT2 cells (ErbB4 overexpressing): < 20%; inhibition of HRG-induced cell growth (CTG assay), OVCAR-8 high ErbB4 expression clone #5: 8%; inhibition of HRG-induced cell growth (CTG assay), OVCAR-8 low ErbB4 expression clone #4: 45%; inhibition of HRG-induced cell growth (CTG assay), OVCAR-8 medium ErbB4 expression clone #9: 25%; inhibition of HRG-induced cell proliferation (CTG assay), OVCAR-8 GFP-expressing control cells, 1.25 uM seribantumab: 40.8%; inhibition of HRG-induced cell proliferation (CTG assay), OVCAR-8 parental cells, 1.25 uM seribantumab: 53.7%; inhibition of HRG-stimulated cell proliferation (CTG assay), A549 cells, 1.25 uM seribantumab, 10 nM HRG: 70%; inhibition of HRG-stimulated cell proliferation (CTG assay), OVCAR-8 cells, 1.25 uM seribantumab, 10 nM HRG: 41%
